Measurements from PMC10393192, “Structure and DNA-bridging activity of the essential Rec114–Mei4 trimer interface”.
Positions count from the first letter of the chain named.

How the values were obtained:
Assay in all cases: EMSA
[1] = target: T1, Rec114(388-428) K403A/K407A;Mei4N K403A;K407A (Saccharomyces cerevisiae;Saccharomyces cerevisiae) (UniProt P32841+P29467); settings: EMSA: 25 mM Tris-HCl pH 7.4, 100 mM NaCl, 5 ng DNA, 20 min, room temperature; AFM: 25 mM HEPES-NaOH pH 7.4, 5 mM MgCl2, 50 mM NaCl, 10% glycerol, 30 min, RT …
T1 sequence 1: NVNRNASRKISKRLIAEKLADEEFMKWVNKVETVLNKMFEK
T1 sequence 2: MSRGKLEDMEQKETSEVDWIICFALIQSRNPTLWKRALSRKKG

[2] = target: T2, Rec114C;Mei4N-ybbR-LD650 (Saccharomyces cerevisiae;Saccharomyces cerevisiae) (UniProt P32841+P29467); settings: EMSA: 25 mM Tris-HCl pH 7.4, 100 mM NaCl, 5 ng DNA, 20 min, room temperature; AFM: 25 mM HEPES-NaOH pH 7.4, 5 mM MgCl2, 50 mM NaCl, 10% glycerol, 30 min, RT …
T2 sequence 1: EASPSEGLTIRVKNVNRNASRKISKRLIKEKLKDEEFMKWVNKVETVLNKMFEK
T2 sequence 2: T1 sequence 2

[3] = target: T3, Rec114(388-428);Mei4(13-43) (Saccharomyces cerevisiae;Saccharomyces cerevisiae) (UniProt P32841+P29467); settings: EMSA: 25 mM Tris-HCl pH 7.4, 100 mM NaCl, 5 ng DNA, 20 min, room temperature; AFM: 25 mM HEPES-NaOH pH 7.4, 5 mM MgCl2, 50 mM NaCl, 10% glycerol, 30 min, RT …
T3 sequence 1: T1 sequence 1 with A16K, A20K
T3 sequence 2: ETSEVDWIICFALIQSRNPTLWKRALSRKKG

[4] = target: T4, Rec114C;Mei4N-ybbR (Saccharomyces cerevisiae;Saccharomyces cerevisiae) (UniProt P32841+P29467); settings: EMSA: 25 mM Tris-HCl pH 7.4, 100 mM NaCl, 5 ng DNA, 20 min, room temperature; AFM: 25 mM HEPES-NaOH pH 7.4, 5 mM MgCl2, 50 mM NaCl, 10% glycerol, 30 min, RT …
T4 sequence 1: T2 sequence 1
T4 sequence 2: T1 sequence 2

[5] = target: T5, Rec114(388-428) K417A/K424A;Mei4N K417A;K424A (Saccharomyces cerevisiae;Saccharomyces cerevisiae) (UniProt P32841+P29467); settings: EMSA: 25 mM Tris-HCl pH 7.4, 100 mM NaCl, 5 ng DNA, 20 min, room temperature; AFM: 25 mM HEPES-NaOH pH 7.4, 5 mM MgCl2, 50 mM NaCl, 10% glycerol, 30 min, RT …
T5 sequence 1: T1 sequence 1 with A16K, A20K, K30A, K37A
T5 sequence 2: T1 sequence 2

[6] = target: T6, Rec114(386-428);Mei4N (Saccharomyces cerevisiae;Saccharomyces cerevisiae) (UniProt P32841+P29467); settings: EMSA: 25 mM Tris-HCl pH 7.4, 100 mM NaCl, 5 ng DNA, 20 min, room temperature; AFM: 25 mM HEPES-NaOH pH 7.4, 5 mM MgCl2, 50 mM NaCl, 10% glycerol, 30 min, RT …
T6 sequence 1: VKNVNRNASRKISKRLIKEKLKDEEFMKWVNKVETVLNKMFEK
T6 sequence 2: T1 sequence 2

[7] = target: T7, Rec114(388-428) K399A/R400A;Mei4N K399A;R400A (Saccharomyces cerevisiae;Saccharomyces cerevisiae) (UniProt P32841+P29467); settings: EMSA: 25 mM Tris-HCl pH 7.4, 100 mM NaCl, 5 ng DNA, 20 min, room temperature; AFM: 25 mM HEPES-NaOH pH 7.4, 5 mM MgCl2, 50 mM NaCl, 10% glycerol, 30 min, RT …
T7 sequence 1: T1 sequence 1 with K12A, R13A, A16K, A20K
T7 sequence 2: T1 sequence 2

[8] = target: T8, Rec114C;Mei4N (Saccharomyces cerevisiae;Saccharomyces cerevisiae) (UniProt P32841+P29467); settings: EMSA: 25 mM Tris-HCl pH 7.4, 100 mM NaCl, 5 ng DNA, 20 min, room temperature; AFM: 25 mM HEPES-NaOH pH 7.4, 5 mM MgCl2, 50 mM NaCl, 10% glycerol, 30 min, RT …
T8 sequence 1: T2 sequence 1
T8 sequence 2: T1 sequence 2

[9] = target: T9, Rec114(388-428);Mei4N (Saccharomyces cerevisiae;Saccharomyces cerevisiae) (UniProt P32841+P29467); settings: EMSA: 25 mM Tris-HCl pH 7.4, 100 mM NaCl, 5 ng DNA, 20 min, room temperature; AFM: 25 mM HEPES-NaOH pH 7.4, 5 mM MgCl2, 50 mM NaCl, 10% glycerol, 30 min, RT …
T9 sequence 1: T1 sequence 1 with A16K, A20K
T9 sequence 2: T1 sequence 2

[10] = target: T10, mREC114C;mMEI4N (Mus musculus;Mus musculus) (UniProt Q9CWH4+Q8BRM6); settings: EMSA: 25 mM Tris-HCl pH 7.4, 100 mM NaCl, 5 ng DNA, 20 min, room temperature; AFM: 25 mM HEPES-NaOH pH 7.4, 5 mM MgCl2, 50 mM NaCl, 10% glycerol, 30 min, RT …
T10 sequence 1: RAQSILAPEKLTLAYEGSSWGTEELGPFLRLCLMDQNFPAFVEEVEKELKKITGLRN
T10 sequence 2: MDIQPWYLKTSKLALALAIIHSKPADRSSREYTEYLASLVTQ

[11] = target: T11, Rec114(325-428);Mei4(1-90) (Saccharomyces cerevisiae;Saccharomyces cerevisiae) (UniProt P32841+P29467); settings: EMSA: 25 mM Tris-HCl pH 7.4, 100 mM NaCl, 5 ng DNA, 20 min, room temperature; AFM: 25 mM HEPES-NaOH pH 7.4, 5 mM MgCl2, 50 mM NaCl, 10% glycerol, 30 min, RT …
T11 sequence 1: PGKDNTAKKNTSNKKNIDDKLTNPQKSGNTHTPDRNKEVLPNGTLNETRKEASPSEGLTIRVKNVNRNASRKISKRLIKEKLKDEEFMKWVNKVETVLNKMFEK
T11 sequence 2: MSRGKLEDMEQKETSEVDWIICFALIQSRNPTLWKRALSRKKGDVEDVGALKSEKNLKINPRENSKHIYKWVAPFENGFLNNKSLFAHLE

[12] = target: T12, Rec114(388-428) R395A/K396A;Mei4N R395A;K396A (Saccharomyces cerevisiae;Saccharomyces cerevisiae) (UniProt P32841+P29467); settings: EMSA: 25 mM Tris-HCl pH 7.4, 100 mM NaCl, 5 ng DNA, 20 min, room temperature; AFM: 25 mM HEPES-NaOH pH 7.4, 5 mM MgCl2, 50 mM NaCl, 10% glycerol, 30 min, RT …
T12 sequence 1: T1 sequence 1 with R8A, K9A, A16K, A20K
T12 sequence 2: T1 sequence 2

Rec114C;Mei4N = target: T13, Rec114C;Mei4N (Saccharomyces cerevisiae;Saccharomyces …, UniProt P32841;P29467 375-428;1-43, |); settings: C50; EMSA: 25 mM Tris-HCl pH 7.4, 100 mM NaCl, 5 ng DNA, 20 min, room temperature; AFM: 25 mM HEPES-NaOH pH 7.4, 5 mM MgCl2, 50 mM NaCl, 10% glycerol, 30 min, RT …
T13 sequence 1: T2 sequence 1
T13 sequence 2: T1 sequence 2

[13] = target: T14, Rec114C (Saccharomyces cerevisiae) (UniProt P32841); settings: C50, single experiment; main text ~300-400 nM; concentration as dimer; EMSA: 25 mM Tris-HCl pH 7.4, 100 mM NaCl, 5 ng DNA, 20 min, room temperature; AFM: 25 mM HEPES-NaOH pH 7.4, 5 mM MgCl2, 50 mM NaCl, 10% glycerol, 30 min, RT …
T14 sequence: T2 sequence 1

ATCTGGCTCGCCTGACGGGATGCGACGAATTTTCGCCGCCCCATAAAGTACGCCCACGACTCGTTCGCACTGGCCCGTGCCGTGGAGTAGCTCATCTGGGCGTAATTCCGGGAAAGCTGCTCATACGAGACACCCAGCCCGGCAGCGATAT (double strand) [150-bp DNA]
K half [1]: 1000 nM | K half [2]: 90 nM | K half [3]: 100 nM | K half [4]: 90 nM | K half [5]: 900 nM | K half [6]: 110 nM | K half [7]: 2000 nM | K half [8]: 90 nM | K half [9]: 110 nM | binding [10]: binds more weakly | K half [11]: 90 nM | K half [12]: 1000 nM

1000-bp DNA
K half (Rec114C;Mei4N): 80 nM | K half [13]: 300 nM
